Where two headings read alike, the source gives them in different places.
Tests used:
[1] = molecular target: T1, human immunodeficiency virus-1 (HIV-1) envelope trimer (BG505 DS-SOSIP) (HIV-1 group M subtype A, isolate BG505, UniProt Q2N0S6, stabilised)
[2] = molecular target: T1, human immunodeficiency virus-1 (HIV-1) …; test: BLI; BG505 DS-SOSIP binding to immobilized VHH9 nanobody; kinetic fit; conditions: both partners purified
[3] = molecular target: T2, bivalent Nb30 (Nb30 fused to human IgG1 Fc) (nanomouse (mouse with camelid VHH genes)); test: BLI; conditions: both partners purified
T2 construct: also called Nb30 (bivalent)
T2 sequence (heavy, as listed by the source): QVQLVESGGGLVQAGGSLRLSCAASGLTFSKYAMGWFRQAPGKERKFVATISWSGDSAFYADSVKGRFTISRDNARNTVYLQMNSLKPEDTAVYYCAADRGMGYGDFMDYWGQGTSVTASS

[4] = molecular target: T3, Nb12 trimer (three Nb12 units with GGGGS(x3) linkers, fused to human IgG1 Fc) (nanomouse (mouse with camelid VHH genes)); test: BLI; conditions: both partners purified
T3 construct: also called trivalent Nb12

B1: VHH9-2 (VHH)
VHH: QVKLEESGGGSVQAGGSLRLSCTAPGFTSNSCGMAWYRQAPGKEREFVSSISTDGTTSYADSVKGRFTISKDKAKDTVYLQMNSLKPEDTAMYSCKTYGPYCYFDVWGAGTTVTVSS
B1: binds [1].

B2: VHH9-3 (VHH)
VHH: QVKLEESGGGSVQAGGSLRLSCTAPGFTSNSCGMAWYRQAPGKEREFVSSISTDGTTSYADSVKGRFTISKDKAKDTVYLQMNSLKPEDTAMYSCKTYGPYCYFDVWGAGTTVTVSA
B2: binds [1].

B3: VHH9-1 (nanobody from nanomouse immunized with BG505 DS-SOSIP) (VHH)
VHH: EVHLVESGGGSVQAGGSLRLSCTTPGFTSNSCGMAWYRQAPGKEREFVSSISTDGTTSYADSVKGRFTISKDKAKDTVYLQMNSLKPEDTAMYSCKTYGPYCYFDVWGAGTTLTVSS
B3: binds [2].

B4: SARS-CoV RBD fused to the Fc region of human IgG1 (Fc fusion)
chain: not shown
B4: binds [3]; binds [4].

— paper PMC8260353 (Nature, 2021)
